In publication PMC4081072, “Structure and semi-sequence-specific RNA binding of Nrd1”:
Numbering of substitutions follows the chain as printed.

How the values were obtained:
Assay in all cases: fluorescence anisotropy; FA: 10 nM RNA, 50 mM sodium phosphate pH 8, 150 mM NaCl, 10 mM beta-mercaptoethanol, 20 C (protein stock in 300 mM NaCl); NMR: same buffer with 300 mM NaCl, 20
Settings in all cases: protein: recombinant; tags: C-terminal His6; label: 5' fluorescein or TAMRA (FA); unlabeled (NMR)
Nrd1 307-491 G344A = molecular target: T1, Nrd1 307-491 G344A (Saccharomyces cerevisiae, UniProt P53617 307-491, G344A)
T1 sequence: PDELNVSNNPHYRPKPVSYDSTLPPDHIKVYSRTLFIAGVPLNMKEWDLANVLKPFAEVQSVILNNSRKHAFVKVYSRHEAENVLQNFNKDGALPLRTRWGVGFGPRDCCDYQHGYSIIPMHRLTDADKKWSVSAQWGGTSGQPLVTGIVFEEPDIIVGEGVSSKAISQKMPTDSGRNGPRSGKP

Nrd1 307-491 D417A = molecular target: T2, Nrd1 307-491 D417A (Saccharomyces cerevisiae, UniProt P53617 307-491, D417A)
T2 sequence: T1 sequence with A38G, D111A

Nrd1 307-491 WT = molecular target: T3, Nrd1 307-491 WT (Saccharomyces cerevisiae, UniProt P53617 307-491)
T3 sequence: T1 sequence with A38G

Nrd1 307-491 N349A = molecular target: T4, Nrd1 307-491 N349A (Saccharomyces cerevisiae, UniProt P53617 307-491, N349A)
T4 sequence: T1 sequence with A38G, N43A

Nrd1 307-491 G409A = molecular target: T5, Nrd1 307-491 G409A (Saccharomyces cerevisiae, UniProt P53617 307-491, G409A)
T5 sequence: T1 sequence with A38G, G103A

Nrd1 307-491 Y382A = molecular target: T6, Nrd1 307-491 Y382A (Saccharomyces cerevisiae, UniProt P53617 307-491, Y382A)
T6 sequence: T1 sequence with A38G, Y76A

Nrd1 307-491 K435D = molecular target: T7, Nrd1 307-491 K435D (Saccharomyces cerevisiae, UniProt P53617 307-491, K435D)
T7 sequence: T1 sequence with A38G, K129D

Nrd1 307-491 R429D = molecular target: T8, Nrd1 307-491 R429D (Saccharomyces cerevisiae, UniProt P53617 307-491, R429D)
T8 sequence: T1 sequence with A38G, R123D

In the case of GUAA (ssRNA), the Kd (Nrd1 307-491 G344A) is reported as 80.8 ± 2.2 µM, the Kd (Nrd1 307-491 D417A) is reported as 17.9 ± 2 µM and the Kd (Nrd1 307-491 WT) is reported as 10.1 ± 0.8 µM. The Kd (Nrd1 307-491 N349A) was 10.2 ± 0.5 µM, the Kd (Nrd1 307-491 G409A) was 157 ± 7.7 µM and the Kd (Nrd1 307-491 Y382A) was 32.1 ± 1.3 µM. It also gave a Kd (Nrd1 307-491 K435D) of 16.2 ± 1.7 µM and a Kd (Nrd1 307-491 R429D) of 24.1 ± 1.7 µM.
